To fix the notation:
B1: Peroxisome proliferator-activated receptor gamma coactivator 1-beta (Homo sapiens), Q86YN6 (parent)
chain: MAGNDCGALLDEELSSFFLNYLADTQGGGSGEEQLYADFPELDLSQLDASDFDSATCFGELQWCPENSETEPNQYSPDDSELFQIDSENEALLAELTKTLDDIPEDDVGLAAFPALDGGDALSCTSASPAPSSAPPSPAPEKPSAPAPEVDELSLLQKLLLATSYPTSSSDTQKEGTAWRQAGLRSKSQRPCVKADSTQDKKAPMMQSQSRSCTELHKHLTSAQCCLQDRGLQPPCLQSPRLPAKEDKEPGEDCPSPQPAPASPRDSLALGRADPGAPVSQEDMQAMVQLIRYMHTYCLPQRKLPPQTPEPLPKACSNPSQQVRSRPWSRHHSKASWAEFSILRELLAQDVLCDVSKPYRLATPVYASLTPRSRPRPPKDSQASPGRPSSVEEVRIAASPKSTGPRPSLRPLRLEVKREVRRPARLQQQEEEDEEEEEEEEEEEKEEEEEWGRKRPGRGLPWTKLGRKLESSVCPVRRSRRLNPELGPWLTFADEPLVPSEPQGALPSLCLAPKAYDVERELGSPTDEDSGQDQQLLRGPQIPALESPCESGCGDMDEDPSCPQLPPRDSPRCLMLALSQSDPTFGKKSFEQTLTVELCGTAGLTPPTTPPYKPTEEDPFKPDIKHSLGKEIALSLPSPEGLSLKATPGAAHKLPKKHPERSELLSHLRHATAQPASQAGQKRPFSCSFGDHDYCQVLRPEGVLQRKVLRSWEPSGVHLEDWPQQGAPWAEAQAPGREEDRSCDAGAPPKDSTLLRDHEIRASLTKHFGLLETALEEEDLASCKSPEYDTVFEDSSSSSGESSFLPEEEEEEGEEEEEDDEEEDSGVSPTCSDHCPYQSPPSKANRQLCSRSRSSSGSSPCHSWSPATRRNFRCESRGPCSDRTPSIRHARKRREKAIGEGRVVYIQNLSSDMSSRELKRRFEVFGEIEECEVLTRNRRGEKYGFITYRCSEHAALSLTKGAALRKRNEPSFQLSYGGLRHFCWPRYTDYDSNSEEALPASGKSKYEAMDFDSLLKEAQQSLH
B2: Estrogen receptor (Homo sapiens), P03372 (parent)
chain: MTMTLHTKASGMALLHQIQGNELEPLNRPQLKIPLERPLGEVYLDSSKPAVYNYPEGAAYEFNAAAAANAQVYGQTGLPYGPGSEAAAFGSNGLGGFPPLNSVSPSPLMLLHPPPQLSPFLQPHGQQVPYYLENEPSGYTVREAGPPAFYRPNSDNRRQGGRERLASTNDKGSMAMESAKETRYCAVCNDYASGYHYGVWSCEGCKAFFKRSIQGHNDYMCPATNQCTIDKNRRKSCQACRLRKCYEVGMMKGGIRKDRRGGRMLKHKRQRDDGEGRGEVGSAGDMRAANLWPSPLMIKRSKKNSLALSLTADQMVSALLDAEPPILYSEYDPTRPFSEASMMGLLTNLADRELVHMINWAKRVPGFVDLTLHDQVHLLECAWLEILMIGLVWRSMEHPGKLLFAPNLLLDRNQGKCVEGMVEIFDMLLATSSRFRMMNLQGEEFVCLKSIILLNSGVYTFLSSTLKSLEEKDHIHRVLDKITDTLIHLMAKAGLTLQQQHQRLAQLLLILSHIRHMSNKGMEHLYSMKCKNVVPLYDLLLEMLDAHRLHAPTSRGGASVEETDQSHLATAGSTSSHSLQKYYITGEAEGFPATV
partner: B1 chain

The variants in one experiment derive from B1. The settings on record: with esr1_human ESR1, P03372.
As for L155A;L156A;L159A;L160A;L343A;L346A;L347A, the “effect of a mutation on the interaction” value is recorded as “disrupting interaction strength”.

On to L343A;L346A;L347A, for which the “effect of a mutation on the interaction” value is “decreasing interaction strength”.

Take L155A;L156A;L159A;L160A: the “effect of a mutation on the interaction” value is given as “decreasing interaction strength”.

Variants of B2 are the subject of another experiment. The note with it: with prgc2_human PPARGC1B.
MTMTLHTKASGMALLHQIQGNELEPLNRPQLKIPLERPLGEVYLDSSKPAVYNYPEGAAYEFNAAAAANAQVYGQTGLPYGPGSEAAAFGSNGLGGFPPLNSVSPSPLMLLHPPPQLSPFLQPHGQQVPYYLENEPSGYTVREAGPPAFYRPNSDNRRQGGRERLASTNDKGSMAMESAKETRYCAVCNDYASGYHYGVWSCEGCKAFFKRSIQGHNDYMCPATNQCTIDKNRRKSCQACRLRKCYEVGMMKGGIRKDRRGGRMLKHKRQRDDGEGRGEVGSAGDMRAANLWPSPLMIKRSKKNSLALSLTADQMVSALLDAEPPILYSEYDPTRPFSEASMMGLLTNLADRELVHMINWAKRVPGFVDLTLHDQVHLLECAWLEILMIGLVWRSMEHPGKLLFAPNLLLDRNQGKCVEGMVEIFDMLLATSSRFRMMNLQGEEFVCLKSIILLNSGVYTFLSSTLKSLEEKDHIHRVLDKITDTLIHLMAKAGLTLQQQHQRLAQLLLILSHIRHMSNKGMEHLYSMKCKNVVPLYDAALEMLDAHRLHAPTSRGGASVEETDQSHLATAGSTSSHSLQKYYITGEAEGFPATV [L539A;L540A]: the “effect of a mutation on the interaction” value is “disrupting interaction strength”.
